Target: EBOV GP displayed on vesicular stomatitis virus (VSV) pseudovirions (Ebola virus) (UniProt Q05320)
Assay: cell-based or functional assay

Chain of EBOV GP displayed on vesicular stomatitis virus (VSV) pseudovirions (Ebola virus) (Q05320 33-676 limits assumed): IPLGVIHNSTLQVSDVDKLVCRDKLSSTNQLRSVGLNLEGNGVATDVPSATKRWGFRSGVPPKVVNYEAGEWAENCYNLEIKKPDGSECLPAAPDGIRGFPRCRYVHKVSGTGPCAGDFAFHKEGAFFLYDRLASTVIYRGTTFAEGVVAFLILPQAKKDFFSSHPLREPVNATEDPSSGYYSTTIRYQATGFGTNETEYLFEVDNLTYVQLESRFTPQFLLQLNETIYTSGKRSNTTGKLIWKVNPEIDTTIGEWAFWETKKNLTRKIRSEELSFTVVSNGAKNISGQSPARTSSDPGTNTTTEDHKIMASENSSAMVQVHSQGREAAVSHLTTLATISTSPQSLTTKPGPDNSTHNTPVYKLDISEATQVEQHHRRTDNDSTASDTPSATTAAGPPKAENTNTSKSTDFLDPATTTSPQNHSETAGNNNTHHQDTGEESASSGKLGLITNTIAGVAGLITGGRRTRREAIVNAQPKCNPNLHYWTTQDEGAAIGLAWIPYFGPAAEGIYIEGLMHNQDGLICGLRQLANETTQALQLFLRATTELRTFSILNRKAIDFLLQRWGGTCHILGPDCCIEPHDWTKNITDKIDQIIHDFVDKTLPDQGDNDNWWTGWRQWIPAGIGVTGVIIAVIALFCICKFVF

With KZ52 (antibody) the IC50, neutralization of VSV pseudotyped to display EBOV GP was 0.08 µg/mL.

Source: patent US20240109954A1
